Measurements taken from US20250043017A1.

Biological target: human 4-1BB expressed with a C-terminal myc-myc-hexahistidine tag (h4-1BB.mmH) (human)
Assay: blocking ELISA, 0.25 nM h4-1BB-mmh binding to coated 6His-Flag-h4-1BBL

Chain of human 4-1BB expressed with a C-terminal myc-myc-hexahistidine tag (h4-1BB.mmH) (human) (chain, as listed by the source limits assumed): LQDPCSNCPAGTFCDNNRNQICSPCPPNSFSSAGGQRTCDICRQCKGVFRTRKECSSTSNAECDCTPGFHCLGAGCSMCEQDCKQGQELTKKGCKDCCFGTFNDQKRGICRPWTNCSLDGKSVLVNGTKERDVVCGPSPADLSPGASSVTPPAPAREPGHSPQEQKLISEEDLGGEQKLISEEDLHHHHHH

% Blocking at 100 nM mAb [%]	Substance
-8	Isotype Control 1 (antibody)
-11	Isotype Control 2 (antibody)
